From publication PMC3753655

Target: His6-MS2 coat protein (bacteriophage MS2) (UniProt P03612)
Test: SEC; Superose 6 (10/300 GL); supernatants of crude cell extracts of E. coli JM101 expression cultures; 50 mM Tris-HCl pH 7.5, 300 mM NaCl; with or without benzonase treatment; reference proteins 669, 400 and 29 kDa

stoichiometry N: 2
Substance: His6-MS2 coat protein (from UniProt P03612 1-130) (natural protein)
